{"source": "patent US9993529B2", "about": "“Stable formulations of a hyaluronan-degrading enzyme” (Halozyme, Inc., priority 2011, dated 2018)", "assay": "RP-HPLC insulin apparent solubility / percent recovery (content)", "conditions": "for Solubility of Lispro: 7 days at 2-8° C.", "summary_of_the_method": "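Vial samples withdrawn at each time point, centrifuged, held at 4 °C, run in duplicate by RP-HPLC. Apparent solubility = combined insulin main and desamido peak areas as percent versus standards/initial formulation; purity = main insulin peak as percent of all insulin species.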"}
{"substance": "insulin Lispro: LysB28, ProB29 human insulin analog", "values": [{"measurement": "Solubility of Lispro", "setting": "0.2% methylparaben + […] m-cresol, pH 6.6, NaCl 50 mM", "value": 42.0, "unit": "%"}, {"measurement": "Solubility of Lispro", "setting": "0.2% methylparaben + […] m-cresol, pH 6.6, NaCl 80 mM", "value": 28.2, "unit": "%"}, {"measurement": "Solubility of Lispro", "setting": "0.2% methylparaben + […] m-cresol, pH 6.6, NaCl 110 mM", "value": 24.1, "unit": "%"}, {"measurement": "Solubility of Lispro", "setting": "0.2% methylparaben + […] m-cresol, pH 6.6, NaCl 140 mM", "value": 25.9, "unit": "%"}, {"measurement": "Solubility of Lispro", "setting": "0.2% methylparaben + […] m-cresol, pH 6.8, NaCl 50 mM", "value": 82.3, "unit": "%"}, {"measurement": "Solubility of Lispro", "setting": "0.2% methylparaben + […] m-cresol, pH 6.8, NaCl 80 mM", "value": 62.6, "unit": "%"}, {"measurement": "Solubility of Lispro", "setting": "0.2% methylparaben + […] m-cresol, pH 6.8, NaCl 110 mM", "value": 47.8, "unit": "%"}, {"measurement": "Solubility of Lispro", "setting": "0.2% methylparaben + […] m-cresol, pH 6.8, NaCl 140 mM", "value": 42.0, "unit": "%"}, {"measurement": "Solubility of Lispro", "setting": "0.2% methylparaben + […] m-cresol, pH 7.0, NaCl 50 mM", "value": 95.3, "unit": "%"}, {"measurement": "Solubility of Lispro", "setting": "0.2% methylparaben + […] m-cresol, pH 7.0, NaCl 80 mM", "value": 98.1, "unit": "%"}, {"measurement": "Solubility of Lispro", "setting": "0.2% methylparaben + […] m-cresol, pH 7.0, NaCl 110 mM", "value": 94.1, "unit": "%"}, {"measurement": "Solubility of Lispro", "setting": "0.2% methylparaben + […] m-cresol, pH 7.0, NaCl 140 mM", "value": 65.6, "unit": "%"}, {"measurement": "Solubility of Lispro", "setting": "0.2% methylparaben + […] m-cresol, pH 7.2, NaCl 50 mM", "value": 95.7, "unit": "%"}, {"measurement": "Solubility of Lispro", "setting": "0.2% methylparaben + […] m-cresol, pH 7.2, NaCl 80 mM", "value": 97.9, "unit": "%"}, {"measurement": "Solubility of Lispro", "setting": "0.2% methylparaben + […] m-cresol, pH 7.2, NaCl 110 mM", "value": 99.6, "unit": "%"}, {"measurement": "Solubility of Lispro", "setting": "0.2% methylparaben + […] m-cresol, pH 7.2, NaCl 140 mM", "value": 98.0, "unit": "%"}, {"measurement": "Solubility of Lispro", "setting": "0.2% methylparaben + […] m-cresol, pH 7.4, NaCl 50 mM", "value": 95.6, "unit": "%"}, {"measurement": "Solubility of Lispro", "setting": "0.2% methylparaben + […] m-cresol, pH 7.4, NaCl 80 mM", "value": 98.2, "unit": "%"}, {"measurement": "Solubility of Lispro", "setting": "0.2% methylparaben + […] m-cresol, pH 7.4, NaCl 110 mM", "value": 99.9, "unit": "%"}, {"measurement": "Solubility of Lispro", "setting": "0.2% methylparaben + […] m-cresol, pH 7.4, NaCl 140 mM", "value": 98.5, "unit": "%"}, {"measurement": "Solubility of Lispro", "setting": "0.2% methylparaben + […] m-cresol, pH 7.6, NaCl 50 mM", "value": 95.7, "unit": "%"}, {"measurement": "Solubility of Lispro", "setting": "0.2% methylparaben + […] m-cresol, pH 7.6, NaCl 80 mM", "value": 98.3, "unit": "%"}, {"measurement": "Solubility of Lispro", "setting": "0.2% methylparaben + […] m-cresol, pH 7.6, NaCl 110 mM", "value": 100.2, "unit": "%"}, {"measurement": "Solubility of Lispro", "setting": "0.2% methylparaben + […] m-cresol, pH 7.6, NaCl 140 mM", "value": 98.8, "unit": "%"}, {"measurement": "Solubility of Lispro", "setting": "0.2% phenol + […] m-cresol, pH 6.6, NaCl 50 mM", "value": 52.8, "unit": "%"}, {"measurement": "Solubility of Lispro", "setting": "0.2% phenol + […] m-cresol, pH 6.6, NaCl 80 mM", "value": 32.8, "unit": "%"}, {"measurement": "Solubility of Lispro", "setting": "0.2% phenol + […] m-cresol, pH 6.6, NaCl 110 mM", "value": 26.0, "unit": "%"}, {"measurement": "Solubility of Lispro", "setting": "0.2% phenol + […] m-cresol, pH 6.8, NaCl 50 mM", "value": 91.4, "unit": "%"}, {"measurement": "Solubility of Lispro", "setting": "0.2% phenol + […] m-cresol, pH 6.8, NaCl 80 mM", "value": 65.1, "unit": "%"}, {"measurement": "Solubility of Lispro", "setting": "0.2% phenol + […] m-cresol, pH 6.8, NaCl 110 mM", "value": 44.9, "unit": "%"}, {"measurement": "Solubility of Lispro", "setting": "0.2% phenol + […] m-cresol, pH 6.8, NaCl 140 mM", "value": 40.4, "unit": "%"}, {"measurement": "Solubility of Lispro", "setting": "0.2% phenol + […] m-cresol, pH 7.0, NaCl 50 mM", "value": 97.4, "unit": "%"}, {"measurement": "Solubility of Lispro", "setting": "0.2% phenol + […] m-cresol, pH 7.0, NaCl 80 mM", "value": 95.5, "unit": "%"}, {"measurement": "Solubility of Lispro", "setting": "0.2% phenol + […] m-cresol, pH 7.0, NaCl 110 mM", "value": 75.2, "unit": "%"}, {"measurement": "Solubility of Lispro", "setting": "0.2% phenol + […] m-cresol, pH 7.0, NaCl 140 mM", "value": 65.3, "unit": "%"}, {"measurement": "Solubility of Lispro", "setting": "0.2% phenol + […] m-cresol, pH 7.2, NaCl 50 mM", "value": 97.6, "unit": "%"}, {"measurement": "Solubility of Lispro", "setting": "0.2% phenol + […] m-cresol, pH 7.2, NaCl 80 mM", "value": 97.4, "unit": "%"}, {"measurement": "Solubility of Lispro", "setting": "0.2% phenol + […] m-cresol, pH 7.2, NaCl 110 mM", "value": 95.2, "unit": "%"}, {"measurement": "Solubility of Lispro", "setting": "0.2% phenol + […] m-cresol, pH 7.2, NaCl 140 mM", "value": 90.8, "unit": "%"}, {"measurement": "Solubility of Lispro", "setting": "0.2% phenol + […] m-cresol, pH 7.4, NaCl 50 mM", "value": 97.7, "unit": "%"}, {"measurement": "Solubility of Lispro", "setting": "0.2% phenol + […] m-cresol, pH 7.4, NaCl 80 mM", "value": 97.6, "unit": "%"}, {"measurement": "Solubility of Lispro", "setting": "0.2% phenol + […] m-cresol, pH 7.4, NaCl 110 mM", "value": 97.0, "unit": "%"}, {"measurement": "Solubility of Lispro", "setting": "0.2% phenol + […] m-cresol, pH 7.4, NaCl 140 mM", "value": 96.9, "unit": "%"}, {"measurement": "Solubility of Lispro", "setting": "0.2% phenol + […] m-cresol, pH 7.6, NaCl 50 mM", "value": 97.5, "unit": "%"}, {"measurement": "Solubility of Lispro", "setting": "0.2% phenol + […] m-cresol, pH 7.6, NaCl 80 mM", "value": 97.7, "unit": "%"}, {"measurement": "Solubility of Lispro", "setting": "0.2% phenol + […] m-cresol, pH 7.6, NaCl 110 mM", "value": 97.3, "unit": "%"}, {"measurement": "Solubility of Lispro", "setting": "0.2% phenol + […] m-cresol, pH 7.6, NaCl 140 mM", "value": 96.8, "unit": "%"}, {"measurement": "Solubility (% of 120 U/mL)", "setting": "2-8° C., pH 7.0, after 1 week at 80, 110 or 140 mM NaCl", "value": "below 65%"}, {"measurement": "Solubility of Lispro", "setting": "[…] phenol + […] m-cresol, pH 6.6, NaCl 50 mM", "value": 60.3, "unit": "%"}, {"measurement": "Solubility of Lispro", "setting": "[…] phenol + […] m-cresol, pH 6.6, NaCl 80 mM", "value": 43.3, "unit": "%"}, {"measurement": "Solubility of Lispro", "setting": "[…] phenol + […] m-cresol, pH 6.6, NaCl 110 mM", "value": 24.2, "unit": "%"}, {"measurement": "Solubility of Lispro", "setting": "[…] phenol + […] m-cresol, pH 6.6, NaCl 140 mM", "value": 27.7, "unit": "%"}, {"measurement": "Solubility of Lispro", "setting": "[…] phenol + […] m-cresol, pH 6.8, NaCl 50 mM", "value": 93.6, "unit": "%"}, {"measurement": "Solubility of Lispro", "setting": "[…] phenol + […] m-cresol, pH 6.8, NaCl 80 mM", "value": 60.8, "unit": "%"}, {"measurement": "Solubility of Lispro", "setting": "[…] phenol + […] m-cresol, pH 6.8, NaCl 110 mM", "value": 44.9, "unit": "%"}, {"measurement": "Solubility of Lispro", "setting": "[…] phenol + […] m-cresol, pH 6.8, NaCl 140 mM", "value": 35.9, "unit": "%"}, {"measurement": "Solubility of Lispro", "setting": "[…] phenol + […] m-cresol, pH 7.0, NaCl 50 mM", "value": 98.7, "unit": "%"}, {"measurement": "Solubility of Lispro", "setting": "[…] phenol + […] m-cresol, pH 7.0, NaCl 80 mM", "value": 96.4, "unit": "%"}, {"measurement": "Solubility of Lispro", "setting": "[…] phenol + […] m-cresol, pH 7.0, NaCl 110 mM", "value": 77.0, "unit": "%"}, {"measurement": "Solubility of Lispro", "setting": "[…] phenol + […] m-cresol, pH 7.0, NaCl 140 mM", "value": 61.2, "unit": "%"}, {"measurement": "Solubility of Lispro", "setting": "[…] phenol + […] m-cresol, pH 7.2, NaCl 50 mM", "value": 100.5, "unit": "%"}, {"measurement": "Solubility of Lispro", "setting": "[…] phenol + […] m-cresol, pH 7.2, NaCl 80 mM", "value": 99.2, "unit": "%"}, {"measurement": "Solubility of Lispro", "setting": "[…] phenol + […] m-cresol, pH 7.2, NaCl 110 mM", "value": 97.3, "unit": "%"}, {"measurement": "Solubility of Lispro", "setting": "[…] phenol + […] m-cresol, pH 7.2, NaCl 140 mM", "value": 93.1, "unit": "%"}, {"measurement": "Solubility of Lispro", "setting": "[…] phenol + […] m-cresol, pH 7.4, NaCl 50 mM", "value": 100.8, "unit": "%"}, {"measurement": "Solubility of Lispro", "setting": "[…] phenol + […] m-cresol, pH 7.4, NaCl 80 mM", "value": 101.8, "unit": "%"}, {"measurement": "Solubility of Lispro", "setting": "[…] phenol + […] m-cresol, pH 7.4, NaCl 110 mM", "value": 100.7, "unit": "%"}, {"measurement": "Solubility of Lispro", "setting": "[…] phenol + […] m-cresol, pH 7.4, NaCl 140 mM", "value": 98.4, "unit": "%"}, {"measurement": "Solubility of Lispro", "setting": "[…] phenol + […] m-cresol, pH 7.6, NaCl 50 mM", "value": 100.9, "unit": "%"}, {"measurement": "Solubility of Lispro", "setting": "[…] phenol + […] m-cresol, pH 7.6, NaCl 80 mM", "value": 102.1, "unit": "%"}, {"measurement": "Solubility of Lispro", "setting": "[…] phenol + […] m-cresol, pH 7.6, NaCl 110 mM", "value": 101.6, "unit": "%"}, {"measurement": "Solubility of Lispro", "setting": "[…] phenol + […] m-cresol, pH 7.6, NaCl 140 mM", "value": 101.3, "unit": "%"}]}
